Values of other authors, collected in paper PMC10823516.
pKd: −log10 of the molar value.

Target: HER2 ECD (Homo sapiens) (UniProt P04626)

Substance: Trastuzumab Fab Fab
- pKd: 8.70
